Experimental data reported in PMC9645730, “Cryo-EM structure of the human sodium-chloride cotransporter NCC” (Science Advances, 2022).

Target: the molecule itself
Assay: cryo-EM structure; single-particle analysis of purified NCC at 9 mg/ml in 25 mM tris (pH 8.0), 150 mM NaCl, 0.02% GDN; TMD map with C2 symmetry, overall map with C1 symmetry

B1: human sodium-chloride cotransporter NCC (natural protein, UniProt P55017-1 1-1021, looked up)
chain: MAELPTTETPGDATLCSGRFTISTLLSSDEPSPPAAYDSSHPSHLTHSSTFCMRTFGYNTIDVVPTYEHYANSTQPGEPRKVRPTLADLHSFLKEGRHLHALAFDSRPSHEMTDGLVEGEAGTSSEKNPEEPVRFGWVKGVMIRCMLNIWGVILYLRLPWITAQAGIVLTWIIILLSVTVTSITGLSISAISTNGKVKSGGTYFLISRSLGPELGGSIGLIFAFANAVGVAMHTVGFAETVRDLLQEYGAPIVDPINDIRIIGVVSVTVLLAISLAGMEWESKAQVLFFLVIMVSFANYLVGTLIPPSEDKASKGFFSYRADIFVQNLVPDWRGPDGTFFGMFSIFFPSATGILAGANISGDLKDPAIAIPKGTLMAIFWTTISYLAISATIGSCVVRDASGVLNDTVTPGWGACEGLACSYGWNFTECTQQHSCHYGLINYYQTMSMVSGFAPLITAGIFGATLSSALACLVSAAKVFQCLCEDQLYPLIGFFGKGYGKNKEPVRGYLLAYAIAVAFIIIAELNTIAPIISNFFLCSYALINFSCFHASITNSPGWRPSFQYYNKWAALFGAIISVVIMFLLTWWAALIAIGVVLFLLLYVIYKKPEVNWGSSVQAGSYNLALSYSVGLNEVEDHIKNYRPQCLVLTGPPNFRPALVDFVGTFTRNLSLMICGHVLIGPHKQRMPELQLIANGHTKWLNKRKIKAFYSDVIAEDLRRGVQILMQAAGLGRMKPNILVVGFKKNWQSAHPATVEDYIGILHDAFDFNYGVCVMRMREGLNVSKMMQAHINPVFDPAEDGKEASARVDPKALVKEEQATTIFQSEQGKKTIDIYWLFDDGGLTLLIPYLLGRKRRWSKCKIRVFVGGQINRMDQERKAIISLLSKFRLGFHEVHILPDINQNPRAEHTKRFEDMIAPFRLNDGFKDEATVNEMRRDCPWKISDEEITKNRVKSLRQVRLNEIVLDYSRDAALIVITLPIGRKGKCPSSLYMAWLETLSQDLRPPVILIRGNQENVLTFYCQ
modifications: N-acetylglucosamine on Asn406 and Asn426; disulfide bonds Cys416-Cys421 and Cys430-Cys436
notes: human NCC (SLC12A3), cloned from HEK293 cDNA; an isoform that, compared with UniProt P55017-1, carries the naturally occurring A264G and lacks Gln95; residue numbers count on P55017-1; The atomic model holds residues 137-605 (TMD) and 616-1020 (CTD, docked as a rigid body from a SWISS-MODEL prediction); No cleavage of the tags is told; also called Na+-Cl- cotransporter; SLC12A3; not shown: FLAG, …
  stoichiometry N: 2
